According to patent publication US20110076265A1 (POMONA RICERCA S R L, published 2011):

Biological target: T1, HA protein (H1-subtype hemagglutinin) of influenza A virus A/California/04/2009 (influenza A virus A/California/04/2009 …, UniProt P26140 18-566)
T1 construct: also called H1 HA (A/California/04/2009)
Test: FACS on fixed HEK 293T cells transfected with HA construct, Fab49 at 10 µg/ml

B1: Fab49 (human monoclonal Fab fragment produced by bacterial clone INF49) (Fab, V domains shown)
VH: LESGGGLVQPGGSLRLSCAASGITFSSYAMSWVRQAPGKGLEWVSTVNSGGGSTYYGDSVRGRFTISRDNSKSTLYLQLNSLRAEDTAIYYCAKDKGRPIFGLVTPSYYMDVWGNGT
VL: ELTQSPSSLSASVGDSVTITCRTSERISTYLNWYQQKPGKAPRLLVSGASTLQGGVPSRFSGSGSGTAFTLTINSLQPEDFATYYCQQSYSTPLTFGGGT
B1: binds.
